Tests used:
[1] = molecular target: aRNase J-StrepII (H. volcanii) (UniProt D4GW49); test: affinity purification with mass spectrometry; tandem affinity purification (HisTrap, then Strep-Tactin) of His6-RecJ3 and aRNase J-StrepII from H. volcanii HJ02-pJAM4252 against the empty vector; 2 M NaCl buffers; LC-MS/MS of the liquid fractions and AQUA-based MS/MS (SRM with heavy peptides) for the stoichiometry
His6-RecJ3 (H. volcanii) [2] = molecular target: His6-RecJ3 (H. volcanii) (UniProt D4GVJ5); test: as above
His6-RecJ3 (H. volcanii), sequence (D4GVJ5 entry or part of it): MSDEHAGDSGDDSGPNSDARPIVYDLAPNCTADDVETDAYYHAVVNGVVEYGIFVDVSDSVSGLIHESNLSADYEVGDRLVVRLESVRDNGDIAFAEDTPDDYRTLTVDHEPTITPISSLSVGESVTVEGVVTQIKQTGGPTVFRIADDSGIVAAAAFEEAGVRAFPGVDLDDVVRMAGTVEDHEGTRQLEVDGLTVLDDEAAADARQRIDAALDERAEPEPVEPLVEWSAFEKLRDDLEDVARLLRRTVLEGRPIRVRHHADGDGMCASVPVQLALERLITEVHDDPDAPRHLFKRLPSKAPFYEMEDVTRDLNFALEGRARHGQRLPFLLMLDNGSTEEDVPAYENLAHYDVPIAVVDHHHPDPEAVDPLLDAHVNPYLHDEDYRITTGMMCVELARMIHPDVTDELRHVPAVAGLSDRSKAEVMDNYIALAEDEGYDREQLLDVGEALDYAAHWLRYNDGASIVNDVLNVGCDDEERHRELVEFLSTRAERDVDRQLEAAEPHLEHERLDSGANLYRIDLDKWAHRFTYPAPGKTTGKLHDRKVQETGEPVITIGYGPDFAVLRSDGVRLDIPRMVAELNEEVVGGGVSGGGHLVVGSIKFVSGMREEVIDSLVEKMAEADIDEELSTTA

His6-RecJ3 (H. volcanii) [3] = molecular target: His6-RecJ3 (H. volcanii) (UniProt D4GVJ5); test: SEC; HisTrap-bound, Strep-Tactin flow-through fractions from H. volcanii HJ07; Superdex 200 Increase 10/300 GL; 50 mM HEPES pH 7.5, 2 M NaCl, 1 mM DTT, 5 mM MnCl2, 5 mM MgCl2, 10% glycerol; fractions on reducing SDS-PAGE
[4] = molecular target: the molecule itself; test: SEC; aRNase J-StrepII purified by Strep-Tactin from H. volcanii HS01-pJAM1406 (ΔrecJ3); Superdex 200 Increase 10/300 GL; 50 mM HEPES pH 7.5, 2 M NaCl, 1 mM DTT, 5 mM MnCl2, 10% glycerol; column calibrated with mass standards

Molecule	stoichiometry N (RecJ4 per aRNase J) [1]	stoichiometry N (RecJ4 per RecJ3) (His6-RecJ3 (H. volcanii) [2])	stoichiometry N (RecJ4 per RecJ3) (His6-RecJ3 (H. volcanii) [3])	stoichiometry N [4]
RecJ4 (natural protein)	2	1	1	–
aRNase J-StrepII (natural protein, H. volcanii, UniProt D4GW49 1-450, looked up, archaeal RNase J of Haloferax volcanii, amplified with primers HVO_2724 NdeI and HVO_2724 KpnI; A homodimer when purified from the ΔrecJ3 mutant (SEC); in the RecJ3/4-aRNase J complex the stoichiometry is 2:2:1; also called aRNase J with a C-terminal StrepII tag; aRNase J homodimer; source: H. volcanii H26- or HS01-pJAM1406, HJ02-, HJ04- or HJ07-pJAM4252, in lysate; purified (Strep-Tactin, SEC); …) MEIEIATIGGYEEVGRQMTAVRAGDDVVVFDMGLNLSQVLIHDNVETEKMHSLDLIDMGAIPDDRVMSDLEGDVQAIVPTHGHLDHIGAISKLAHRYDAPVVATPFTIELVKQQIEGENKFNVNNDLVKMEAGETMSIGDSGNVELEFVHVTHSIIDAINPVVHTPEGAVVYGLDKRMDHSPVLEDPIDMKRFREIGREGNGVLAYIEDCTNAGRKGRTPSESVARRHLKDVMTSVEDYDGGIVATTFSSHISRVSSLVEFAKDIGRQPVLLGRSMEKYSGTAERLGFVDLPDDLGMYGHRKSVDRTFKRIMKEGKENYLPIVTGHQGEPRAMLTRMGRGETPYEIDDGDKVIFSARVIPEPTNEGQRYQSERLLRMQGARIYDEIHVSGHLREEGHYEMLQALQPQHVIPAHQNLKGFAPYVDLAESQGYALGRDLHVTRNGNMIQLVE	–	–	–	2
